Measurements taken from publication PMC11088181, “Monocytes release cystatin F dimer to associate with Aβ and aggravate amyloid pathology and cognitive deficits in Alzheimer’s disease” (Journal of Neuroinflammation, 2024).

B1: cystatin F in human plasma (natural protein, human (endogenous in plasma), UniProt O76096 20-145, looked up)
chain: GPSPDTCSQDLNSRVKPGFPKTIKTNDPGVLQAARYSVEKFNNCTNDMFLFKESRITRALVQIVKGLKYMLEVEIGRTTCKKNQHLRLDDCDFQTNHTLKQTLSCYSEVWVVPWLQHFEVPVLRCH
notes: cystatin F, secreted form in plasma; also called secreted cystatin F; cystatin F dimer; source: endogenous, human plasma (AD patients and controls)
B2: native cystatin F in cultured monocytes (natural protein, UniProt O76096 20-145, looked up)
chain: B1 chain
notes: cystatin F of cultured monocytes; also called intracellular cystatin F protein; extracellular proteins; source: endogenous, cultured monocytes (intracellular and extracellular)

Biological target: the molecule itself
Assay: native gel or EMSA; nondenaturing gel (loading buffer without DTT) and western blot with anti-cystatin F; plasma diluted in PBS, or cultured monocytes

| Protein | stoichiometry N |
| --- | --- |
| B1 | 2 |
| B2 | 2 |
